Numbering of substitutions follows the chain as printed. Names may count otherwise.
Key:
[1] = tested on: soybean shoots; experiment: Soybean transformation, selection of shoots with tembotrione; type: in vivo; settings: wild-type soybean shoots treated with selection marker
Source text: Soybean transformation was achieved by using methods well known in the art, such as the one described using the Agrobacterium tumefaciens mediated transformation soybean half-seed explants using essentially the method described by Paz et al. (2006), Plant cell Rep. 25:206. Transformants were identified by using the HPPD inhibitor herbicide “tembotrione” as selection marker. The appearance of green shoots was observed, and documented as an indicator of tolerance to the HPPD inhibitor herbicide tembotrione.

[2] = tested on: E. coli cells expressing an HPPD polypeptide; experiment: Brown Color Assay on solid LB-agar, visual score of brown pigment; type: cell-based; settings: 25, 50, 100, 250 and 500 μM Cmpd. 1
Method: Mutant HPPD polypeptides were analyzed using a brown color assay (WO2014/043435). Bacterial cells expressing the mutant HPPD polypeptide according to the invention were assayed in 96 well format for HPPD inhibitor tolerance by spotting on solid media containing LB-agar, selection agent for the expression vector pSE420(RI)NX (WO2014/043435), 5 mM tyrosine (Sigma-Aldrich, St. Louis, USA), 42 mM succinate (Sigma-Aldrich, St. Louis, USA) and six different concentrations of the HPPD inhibitor herbicide Cmpd. 1 (0-500 μM). In the brown color assay, an overnight culture of the E. coli cells expressing one of the respective mutant HPPD polypeptides were diluted to an OD600 of 1 and 10 μl extract was spotted in triplicates on plates containing 0, 25, 50, 100, 250, or 500 μM of Cmpd. 1. Plates were covered with airpore tape and incubated at 30 degrees C. After 24 hours, the cells were kept in darkness at room temperature and after 7 days the brown pigment formation was scored visually. In the presence of an HPPD inhibitor herbicide, this pigment formation is inhibited and the color of the agar plate will not alter, unless an HPPD inhibitor herbicide tolerant HPPD polypeptide is expressed and active. […] The “++” and “+” scores a medium and light brown pigmentation, respectively, and the “0” means that no brown pigmentation development was detected on the LB agar plates.

[3] = molecular target: HPPD polypeptides (wild-type SEQ ID NO:1 and mutants) (Pseudomonas sp., UniProt P80064, A172V/A339V/A53E/D148E/D45N/E105D/E287Q/E300V/E334P/F143Y/G286D/G335H/H150N/H254A/H63N/I158V/I187A/I249V/I344V/K92N/L18F/N24G/N280D/N336S/P267G/S245T/S257K/S301E/T205S/T269E/V65I); settings: compared with SEQ ID NO: 24; Table 3a and 3c
[4] = tested on: transgenic T1 soybean events; experiment: Field trials of T1 soybean events, leaf damage eight days after application; type: in vivo
Method: Soybean plants expressing an HPPD inhibitor tolerant polypeptide of the present invention alone, or along with a gene conferring tolerance to glyphosate and/or a gene conferring tolerance to glufosinate or having a “plant expression cassette”, which includes only an HPPD inhibitor tolerant polypeptide of the present invention, were tested for tolerance to different HPPD inhibitor herbicide chemical classes. The transgenic plants were routinely analyzed for the expression and presence of the transgenes using the ELISA protein detection method (see detailed description under item D and H). Only plants recovering in the selection media and having a detectable HPPD transgene protein expression were regenerated, transferred to the greenhouse and used at V2-V4 growth stage for the HPPD inhibitor herbicide tolerance analysis of the T0 soybean events in the greenhouse (Example 6). The chemical formulation with HPPD inhibitor herbicides was supplemented with ammonium sulfate and methyl ester rapeseed oil. Herbicide tolerance evaluation was taken 5-21 days after spraying. The best performing independent T0 soybean events were selfed to produce T1 soybean seeds. In the field trails, the advanced T1 soybean seeds were planted and treated with either 210 g/ha of isoxaflutole or 150 g/ha of Cmpd.
In Table 10, the frequency of the soybean events showing a good tolerance, i.e. equal or less than 15% damage of the total leaf area are summarized

[5] = molecular target: HPPD polypeptides (wild-type SEQ ID NO:1 and mutants) (Pseudomonas sp., UniProt P80064, A172V/A339V/A53E/D148E/D329H/D45N/E105D/E287Q/E300V/E334P/F143Y/G286D/G335D/H150N/H254A/H63N/I158V/I187A/I249V/K92N/L18F/M263R/N24G/N280D/N336S/S245T/S257K/S301E/T205S/V65I); settings: compared with SEQ ID NO:12; Tables 3a, 3b
[6] = molecular target: HPPD polypeptides (wild-type SEQ ID NO:1 and mutants) (Pseudomonas sp., UniProt P80064, A172V/A339V/A53E/D148E/D329H/D45N/E105D/E287Q/E300V/E334P/F143Y/G286D/G335D/H150N/H254A/H63N/I158V/I187A/I249V/I344V/K92N/L18F/M263R/N24G/N280D/N336S/P267G/S245T/S257K/S301E/T205S/T269E/V65I); settings: 15 μM Cmpd. 1, high substrate concentration (Table 3a)
[7] = tested on: HPPD polypeptides (purified, wild-type SEQ ID NO:1 and mutants); experiment: Coupled HPPD activity assay: ki determination, competitive inhibition fit; type: biochemical, Pseudomonas fluorescens; settings: inhibitor Cmpd. 1
Method: For the generation of purified HPPD polypeptide samples, cells were grown for 3 h at 37° C. in 5 ml LB medium containing 100 μg/ml ampicillin in a 50 ml shaker flask at 140 rpm. One ml of this starter culture was used as inoculum for the expression culture. […] At an OD600 of about 0.6, IPTG (Roth, Karlsruhe, Germany) was added to a concentration of 0.4 mM. After further growth for 60 min at 37° C., the temperature was reduced to 28° C. and growth continued for another 18 h at 140 rpm. Cells were harvested by centrifugation at 4° C., 3200 g for 30 min in 50 ml Falcon tubes and cell pellets were stored at −80° C. […]
The resulting protein samples were re-buffered into 20 mM Tris, 20% Glycerol (pH 7.8) (Sigma-Aldrich, St. Louis, USA) by use of Zeba™ Spin Desalting Columns, 7K MWCO, 10 mL (Thermo Fisher Scientific, Waltham, USA) and analysed for protein concentration and purity by Abs280 (NANODROP 8000, Thermo Fisher Scientific, Waltham, USA) and SDS-PAGE. […]
The mutant HPPD polypeptides represented here are examples by a way of illustration, not by a way of limitation. […] The inhibitor concentrations were adopted for the respective HPPD polypeptide/inhibitor pairs to generate dynamic data, i.e. variants with lower tolerance were analyzed in a range of lower inhibitor concentrations, and concentrations of up to 1200 μM were used for variants with maximized tolerance. […]

[8] = molecular target: HPPD polypeptides (wild-type SEQ ID NO:1 and mutants) (Pseudomonas sp., UniProt P80064, A172V/A339V/A53E/D148E/D45N/E105D/E287Q/E300V/E334P/F143Y/G286D/G335D/H150N/H254A/H63N/I158V/I187A/I249V/I344V/K92N/L18F/N24G/N280D/N336S/P267G/S245T/S257K/S301E/T205S/T269E/V65I); settings: 50 μM Cmpd. 1, low substrate concentration
[9] = tested on: HPPD polypeptides (wild-type SEQ ID NO:1 and mutants); settings: 50 μM Cmpd. 1, low substrate concentration (Table 5)
[10] = 150 g/ha Cmpd. 1, stage V2-V4, eight days after application
[11] = 210 g/ha isoxaflutole, stage V2-V4, eight days after application

Chain of HPPD polypeptides (wild-type SEQ ID NO:1 and mutants) (Pseudomonas sp., UniProt P80064, A172V/A339V/A53E/D148E/D329H/D45N/E105D/E287Q/E300V/E334P/F143Y/G286D/G335D/H150N/H254A/H63N/I158V/I187A/I249V/I344V/K92N/L18F/M263R/N24G/N280D/N336S/P267G/S245T/S257K/S301E/T205S/T269E/V65I) (P80064 other isoform, or with tags, fused parts or gaps with the stated changes): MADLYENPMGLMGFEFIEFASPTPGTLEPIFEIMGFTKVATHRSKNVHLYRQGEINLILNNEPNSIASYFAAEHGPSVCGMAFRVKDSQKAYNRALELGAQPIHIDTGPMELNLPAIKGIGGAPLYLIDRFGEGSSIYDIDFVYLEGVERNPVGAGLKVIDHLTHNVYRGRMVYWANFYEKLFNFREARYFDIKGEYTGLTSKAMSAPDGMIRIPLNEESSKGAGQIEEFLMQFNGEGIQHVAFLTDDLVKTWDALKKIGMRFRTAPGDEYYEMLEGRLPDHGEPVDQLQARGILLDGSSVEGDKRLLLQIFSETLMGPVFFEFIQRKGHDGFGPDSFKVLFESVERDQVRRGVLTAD
Chain of HPPD polypeptides (wild-type SEQ ID NO:1 and mutants) (Pseudomonas sp., UniProt P80064, A172V/A339V/A53E/D148E/D329H/D45N/E105D/E287Q/E300V/E334P/F143Y/G286D/G335D/H150N/H254A/H63N/I158V/I187A/I249V/K92N/L18F/M263R/N24G/N280D/N336S/S245T/S257K/S301E/T205S/V65I) (P80064 other isoform, or with tags, fused parts or gaps with the stated changes): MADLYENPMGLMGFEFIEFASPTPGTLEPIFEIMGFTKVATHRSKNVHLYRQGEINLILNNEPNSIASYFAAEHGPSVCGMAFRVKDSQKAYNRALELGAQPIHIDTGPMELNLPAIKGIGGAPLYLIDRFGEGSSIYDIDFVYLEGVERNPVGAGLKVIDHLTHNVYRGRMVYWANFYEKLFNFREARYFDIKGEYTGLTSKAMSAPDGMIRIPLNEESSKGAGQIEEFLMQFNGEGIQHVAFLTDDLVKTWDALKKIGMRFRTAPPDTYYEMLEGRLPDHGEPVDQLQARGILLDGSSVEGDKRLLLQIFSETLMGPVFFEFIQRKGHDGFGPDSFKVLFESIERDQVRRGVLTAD
Chain of HPPD polypeptides (wild-type SEQ ID NO:1 and mutants) (Pseudomonas sp., UniProt P80064, A172V/A339V/A53E/D148E/D45N/E105D/E287Q/E300V/E334P/F143Y/G286D/G335D/H150N/H254A/H63N/I158V/I187A/I249V/I344V/K92N/L18F/N24G/N280D/N336S/P267G/S245T/S257K/S301E/T205S/T269E/V65I) (P80064 other isoform, or with tags, fused parts or gaps with the stated changes): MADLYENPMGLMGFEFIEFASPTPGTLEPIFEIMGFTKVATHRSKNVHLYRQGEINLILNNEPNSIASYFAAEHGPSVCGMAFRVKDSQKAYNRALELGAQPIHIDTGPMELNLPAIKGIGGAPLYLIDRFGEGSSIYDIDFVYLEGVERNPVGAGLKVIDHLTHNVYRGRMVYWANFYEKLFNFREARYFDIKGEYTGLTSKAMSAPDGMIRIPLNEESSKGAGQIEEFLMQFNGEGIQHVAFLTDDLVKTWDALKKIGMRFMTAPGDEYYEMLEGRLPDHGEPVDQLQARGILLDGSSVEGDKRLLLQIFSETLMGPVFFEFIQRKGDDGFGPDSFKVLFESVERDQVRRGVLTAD

CS(=O)(=O)c1ccc(C(=O)C2C(=O)CCCC2=O)c(Cl)c1COCC(F)(F)F [tembotrione, 2-[2-chloro-4-(methylsulfonyl)-3-[(2,2,2,-trifluoroethoxy)methyl]benzoyl]-1,3-cyclohexanedione]
appearance of shoots [1]: entirely bleached

B1: SEQ ID NO:31 (protein)
chain: MADLYENPMGLMGFEFIEFASPTPGTLEPIFEIMGFTKVATHRSKNVHLYRQGEINLILNNEPNSIASYFAAEHGPSVCGMAFRVKDSQKAYNRALELGAQPIHIDTGPMELNLPAIKGIGGAPLYLIDRFGEGSSIYDIDFVYLEGVERNPVGAGLKVIDHLTHNVYRGRMVYWANFYEKLFNFREARYFDIKGEYTGLTSKAMSAPDGMIRIPLNEESSKGAGQIEEFLMQFNGEGIQHVAFLTDDLVKTWDALKKIGMRFMTAPGDEYYEMLEGRLPDHGEPVDQLQARGILLDGSSVEGDKRLLLQIFSETLMGPVFFEFIQRKGDDGFGPHSFKVLFESVERDQVRRGVLTAD
modifications: mutant HPPD polypeptide
brown coloring compared with SEQ ID NO: 2, in words [2]: stronger brown coloring
residual turnover in the presence of Cmpd. 1 and MST, in words [3]: increase significantly

B2: SEQ ID NO: 18: mutant HPPD polypeptide: M264R D330H E335P G336D N337S A340V (protein)
chain: B1 chain with M264R, G268P, E270T, D330H, H336D, V345I
modifications: mutant HPPD polypeptide
notes: mutant HPPD polypeptide: M264R D330H E335P G336D N337S A340V
Frequency in the population (events with ≤15% leaf damage) [4, 10]: 60%
Independent events with ≤15% leaf damage after spray [4, 10]: 12
Frequency in the population (events with ≤15% leaf damage) [4, 11]: 60%
Independent events with ≤15% leaf damage after spray [4, 11]: 12
HPPD inhibitor tolerance towards Cmpd. 1 and Cmpd. 2, in words [5]: further significant improved

B3: SEQ ID NO:19 (protein)
chain: B1 chain with M264R, D330H, H336D
modifications: mutant HPPD polypeptide
Residual activity [6]: 68%
Residual turnover [6]: 79%
increase of ki towards Cmpd. 1 compared to SEQ ID NO:2 [7]: ~30 fold

B4: SEQ ID NO:17 (protein)
chain: B1 chain with H336D
modifications: mutant HPPD polypeptide
reduction of substrate turnover [8]: 46%
Residual activity [9]: 29%
increase of ki towards Cmpd. 1 compared to SEQ ID NO:2 [7]: ~20 fold

— patent US10597674B2, “HPPD variants and methods of use” (BASF Agricultural Solutions Seed, US LLC, priority 2015, dated 2020)
